In patent publication US11630109B2, “Sensors and assays for ubiquitin or ubiquitin-like proteins” (Colorado State University Research Foundation, priority 2013, dated 2023):

Assays:
Format in all cases: binding
Nedd8 [1] = target: T1, Nedd8 (Homo sapiens, UniProt Q15843); assay: Fluorescence intensity titration of Atto532-tIV with free Nedd8
Protocol: FIG. 22 provides a graph showing that Atto532-tagged tIV L1 Cys binds to free Nedd8 with a Kd of several μM.
Increasing concentrations of free Nedd8 protein were added to Atto532-tIV, and the fluorescence intensity was measured (see FIG. 22).

Nedd8 [2] = target: T1, Nedd8; assay: tSR competition assay with Atto532-tagged ubiquitin, relative fluorescence; details: 5 nM Atto532-tagged ubiquitin protein and 600 nM tSR
Protocol: (§1) A competition assay was performed where unconjugated free ubiquitin proteins, different kinds of conjugated free ubiquitin proteins, and Nedd8 were added to mixtures of 5 nM Atto532-tagged ubiquitin protein and 600 nM tSR. The relative fluorescence was measured. […] The Ki values for unconjugated ubiquitin proteins and the different kinds of conjugated free ubiquitin proteins are provided in a table (bottom).
as §1, with “The binding affinities of tSR were determined (see FIG. 25). A competition” for “A competition”, “performed where free ubiquitin” for “performed where unconjugated free ubiquitin”, “a table (see FIG. 25).” for “a table (bottom).”

[3] = system: conjugated ubiquitin protein; assay: Direct titration of Alexa488-tagged tSR, relative fluorescence; details: 10 nM Alexa488 tSR
Protocol: (§2) The relative fluorescence intensity changes of Alexa488-tagged tSR when ubiquitin is added is shown (middle). The relative fluorescence of 10 nM Alexa488 tSR when different concentrations of unconjugated ubiquitin protein, conjugated ubiquitin protein, or Nedd8 are added (right).
(§3) The tSR can be used for direct titration experiments (see FIG. 26). The relative fluorescence intensity changes of Alexa488-tagged tSR when ubiquitin is added at varying concentrations. The relative fluorescence of 10 nM Alexa488 tSR was measured with different concentrations of unconjugated ubiquitin protein, conjugated ubiquitin protein, or Nedd8.

[4] = target: unconjugated ubiquitin protein (Homo sapiens, UniProt P0CG48); assay: as above; details: 10 nM Alexa488 tSR
Protocol: as §2, §3

Nedd8 [5] = target: T1, Nedd8; assay: as above; details: 10 nM Alexa488 tSR
Protocol: as §2, §3

T1 sequence (Q15843 1-76 limits assumed): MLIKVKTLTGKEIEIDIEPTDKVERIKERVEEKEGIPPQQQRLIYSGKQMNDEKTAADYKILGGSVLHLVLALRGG

B1: tIV: chimeric protein with two ubiquitin binding domains, IsoT ZnF and Vps27 UIM, SEQ ID NO: 5 (protein)
chain: MGSSHHHHHHSSGLVPRGSHMKQEVQAWDGEVRQVSKHAFSLKQLDNPARIPPSGWKCSKCDMRENLWLNLTDGSILCGRRYFDGSGGNNHAVEHYRETGYPLAVKLGTITPDGADVWSYDEDDMVLDPSLAEHLSHFGIDMLKMQKGSCAAAEEAELDLKAAIQESLREA
modifications: tIV - Atto532-tagged chimeric polypeptide comprising two binding domains that bind ubiquitin in non-overlapping regions
binding affinity for free Nedd8 protein compared with conjugated Nedd8 protein (Nedd8 [1]; predicted from binding interactions of Vps27UIM and Nedd8): greater binding affinity

B2: Atto532-tagged tIV L1 Cys: tIV L1 Cys (SEQ ID NO: 5) tagged with Atto532 fluorophore at the linker Cys (conjugate)
chain: B1 chain
modifications: Atto532 fluorophore on linker Cys; tIV - Atto532-tagged chimeric polypeptide comprising two binding domains that bind ubiquitin in non-overlapping regions
KD for Nedd8 (Nedd8 [1]; free Nedd8 added to Atto532-tIV, fluorescence intensity): several

B3: tSR: universal chimeric polypeptide sensor, SEQ ID NO: 7: S5a UIM and Ruz domains connected by a linker (protein)
chain: MPSSHHHHHHSSGLVPRGSHMTEEEQIAYAMQMSLREAGGGSDLLCKKGCGYYGNPAWQGFCSKCWREEAHKCAAERAAAE
modifications: tSR - chimeric polypeptide comprising two binding domains that bind ubiquitin in non-overlapping regions
specificity against Nedd8 (Nedd8 [2]): specificity against Nedd8

B4: Alexa488-tagged tSR: tSR tagged with Alexa488 fluorophore (conjugate)
chain: B3 chain
binding of conjugated ubiquitin protein [3]: detected
binding of unconjugated ubiquitin protein [4]: detected
binding of Nedd8 protein (Nedd8 [5]): but not Nedd8 protein
